Data as given in the nanobody polyreactivity screen of Harvey et al. (2022).

Test: yeast display, Sf9 membrane polyspecificity reagent, FACS + sequencing; frameworks hold sequencing errors
Outline: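 Galactose induction of a Saccharomyces cerevisiae BJ5465 synthetic nanobody display library ran 36–48 hours. The cells were then stained for 1 hour at 4 °C with 10% biotinylated, detergent-solubilized Sf9 membrane reagent, pulled down on streptavidin microbeads and FACS-sorted into low and high (top ~1%) gates on expression and reagent-binding fluorescence. Labels for polyreactivity follow the gate of origin.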
With “QVQLVESGGGLVQAGGSHRLSCAASGSTFVLYALGWYRQAPGKERELVAVISWSGGSTYYADSVKGRFTISRDNAKNTVYLQMNSLKPEDTAVYYCAATGWSSFYYRFDYWGQGTQVTVSS” the “polyreactivity (PSR sort gate)” value was “low polyreactivity”. For “QVQLVESGGGLVQAGGSHRLSCAASGSTFVSNAMGGYRQAPGKERELVAGITFSGGSTYYADSVKGRFTISRDNAKNAVYLQMNSVKPEDTAVYYCAKRTYPSFYYWGQGTKVTVSS”, the “polyreactivity (PSR sort gate)” value was “low polyreactivity”. In the case of “QVQLVESGGGLVQAGGSHRLSCAASGSTLGDYAMGWYRQAPGKERELVAAISNGVSTNYADSVKGRFTISRDNAKNTVYLQKNSLKPVDTAVYYCNAGSGWGSLLEYDYWGQGTKVTVSS”, the “polyreactivity (PSR sort gate)” value is reported as “low polyreactivity”. In the case of “QVQLVESGGGLVQAGGSHRLSCAPSGRTYYMYAMGWYRPAPGKEREFVAAITSGGSRNYADSVKGRFTISRDNAKKTVYLQMNSLKPEDTAVYYWARYRGYWGRYYGVDYGYWGQGTQVTVSS”, the “polyreactivity (PSR sort gate)” value is reported as “high polyreactivity”. In the case of “QVQLVESGGGLVQAGGSHRLSCDSSGTFKWYAMGWYRQAPGKERELVAVISTSGGTTNYADSVKGRFTISLDNAKNTVYLQMNSLKPEDTAVYYCNAAKLFRYDYWGQGTQVTVSS”, the “polyreactivity (PSR sort gate)” value is reported as “high polyreactivity”. In the case of “QVQLVESGGGLVQAGGSHRLSCSASGSNFRDYAMGWYRQAPGKERELVAAISWSSSRTYYADSVKGRFTISRDNAKNTVYLQMNSLKPEDTAVYYCNKLSIWSYYFGPYGYDYWGQGTQVTVSS”, the “polyreactivity (PSR sort gate)” value is reported as “low polyreactivity”. For “QVQLVESGGGLVQAGGSHRLSSAASGSTFAKNAMGWYRQARGKESELVATISRGGSTNYADSVKGRFTISRDNAKNTVYLQMNSLKPEDTAVYYCNADRVRTAVYSYVYAYGIMNYSGQGTQVTVSS”, the “polyreactivity (PSR sort gate)” value was “low polyreactivity”. In the case of “QVQLVESGGGLVQAGGSHRLTCAASGRTFIFYAMGWYRPEPGKERELVAAITYSGTSTYYADSVKGRFTISRDNAKNTVYLQMNSLKPEDTAVYYCAKDGQRDANYYWGQGTQVTVSS”, the “polyreactivity (PSR sort gate)” value is reported as “low polyreactivity”. With “QVQLVESGGGLVQAGGSIRLSCAASASIFQSYAMGWYRQAAGKERELVATITYSAGSTYYSDSVKGRFTITRDNAKNTVYLQMNSLKPEDTAVYYCDARRRGTIKTRMDYWGQGTQVTVSS” the “polyreactivity (PSR sort gate)” value was “high polyreactivity”. For “QVQLVESGGGLVQAGGSIRLSCAASGFIFGGYAMGWYRQAPGKERELVAAITRSGGSTYYADSVKGRFTISRDNAKTTVYFQMNSLKPEDTAVYYCAAVPYRKHSYPFRLNYWGQGTQVTVSS”, the “polyreactivity (PSR sort gate)” value was “high polyreactivity”. In the case of “QVQLVESGGGLVQAGGSIRLSCAASGFIFNHYAMGWYRQAPVKEREFVAAISWSGTRTYYADSVKGRFTISRDNAKNTVYLQMNSLKPEDTAVYYCAADVWGPYDYWGQGTQVTVSS”, the “polyreactivity (PSR sort gate)” value is reported as “low polyreactivity”. For “QVQLVESGGGLVQAGGSIRLSCAASGFTFAKYSMGWYRQAPVKERELVATITRGGNTYYADSVKGRFTISRDNAKNTVYLQMNSLKPEDTAVYYCAASWYRFSQYKYYYWGQGTKVTVSS”, the “polyreactivity (PSR sort gate)” value was “high polyreactivity”. With “QVQLVESGGGLVQAGGSIRLSCAASGFTFYYNTMGCYRQAPGKERELVAAISYSAGSTFYADSVKGRFTISRDNAKNTVYLQMNSLKTEDTAVYYCAAGRPRRHKGYHFGYWGQGTQVTVSS” the “polyreactivity (PSR sort gate)” value was “low polyreactivity”. For “QVQLVESGGGLVQAGGSIRLSCAASGITFYRNARGWYRQAPGKEMELVAAITWNGGRTYYADSVKGRFTISRDNAKNTVYLQMNSLKPEDTAVYYCAAAYPTYRHYYWGQGTQVTVSS”, the “polyreactivity (PSR sort gate)” value was “low polyreactivity”. In the case of “QVQLVESGGGLVQAGGSIRLSCAASGITFYVYTLGWYRQAAGKERELVAAINGSGGSTNYADSVKGRFTITRDNEKNTVYLQMNSLKREDTAVYYCNAPVVYFWPLNFDYWGQGTQVTVSS”, the “polyreactivity (PSR sort gate)” value is reported as “low polyreactivity”. For “QVQLVESGGGLVQAGGSIRLSCAASGNTFRYYAMGWYRQAPGKERELVAGISRRGGSTYYADSVKGRFTISRDNAKNTVYLQMNSLKPEDTAVYYCNAVGGNGAVVAYGYWGQGTQVTVSS”, the “polyreactivity (PSR sort gate)” value was “high polyreactivity”. For “QVQLVESGGGLVQAGGSIRLSCAASGRIFHPYAMGWYRQAPGKERELVATISWSGGSTTYADSVKGRFTISRDNAKNTVYLQMNSLKPEDTAVYYCNADYWWSYVRFDYWGQGTQVTVSS”, the “polyreactivity (PSR sort gate)” value was “low polyreactivity”. With “QVQLVESGGGLVQAGGSIRLSCAASGRIFWGNGMGWYRQAPGKEREFVAAISKSGGSTYYPDSVKGRFTISRDNAKNTVYLQMNSLKPEDTAVYYCAARAPYSYSGYGYWGQGTQVTVSS” the “polyreactivity (PSR sort gate)” value was “high polyreactivity”. For “QVQLVESGGGLVQAGGSIRLSCAASGRIFYTYAMGWYRPAPGKERELVAAISSRTGSTYYADSVKGRFTISRDNAKNTVYLQMNSLKPEDTAVYYCNAYRLRYGYDYWGQGTQVTVSS”, the “polyreactivity (PSR sort gate)” value was “high polyreactivity”. With “QVQLVESGGGLVQAGGSIRLSCAASGRTFSAYAMGWYRQEPGKVRELVARITSVDSTNYADSVKGRFTISRDNAKNTVYLQMNSLKPEDTAVYYSNATFGYPLVDYDDYWGQGTQVTVSS” the “polyreactivity (PSR sort gate)” value was “low polyreactivity”. In the case of “QVQLVESGGGLVQAGGSIRLSCAASGRTFYLYAMGWYRQAPGKERELVAVISRRGGRTYYADSVKGRFTISRDNSKNTVYLQMNSLKPEDTAVYYCAVYSFGMGYWGQGTQVTVSS”, the “polyreactivity (PSR sort gate)” value is reported as “high polyreactivity”. In the case of “QVQLVESGGGLVQAGGSIRLSCAASGSTFSHNAMGWYRQAPGKERELVAAIRWNGGSTYYADSVKGRFTISRDNAKNTVYLQMNSLKPEDTAVYYCAKENHYFTQGYGYWGQGTQVTVSS”, the “polyreactivity (PSR sort gate)” value is reported as “low polyreactivity”. With “QVQLVESGGGLVQAGGSIRLSCAASGVIFYGNSIGWYRQAPGKERELVAAISRRGGRTYYADSVKGRFTNSRDNAKITVYLQMNSLKPEDTAVYYCAADVIYSGDYWGQGTQVTVSS” the “polyreactivity (PSR sort gate)” value was “high polyreactivity”. For “QVQLVESGGGLVQAGGSIRLSCAPSGRTFRYYAMGWYRQAPGKERELVAAISRSGGSTYYADSVKGRFTISRDNAKNTVYLQMNSLKPEVTAVYYCADRYYVPWFGPSKYTPYDYWGQGIQVTVSS”, the “polyreactivity (PSR sort gate)” value was “high polyreactivity”. For “QVQLVESGGGLVQAGGSISLSCAASGFIFDDNAMGCYRQAPGKERELVAAISQGAGRTYYADSVKGRFTISRDNAKNTVYLQMNSVKPEDTAVYYCNSGRPKYWYGSKYDYWGQGTQVTVSS”, the “polyreactivity (PSR sort gate)” value was “low polyreactivity”. With “QVQLVESGGGLVQAGGSLCLSCAASGIFVYNAIGWYRQAPGKEREFVAAINKSGASTFYADSVKGRFTISRDNAKNTVYLQMNRLKPEDTAVYYCRERDYWGQGTQVTVSS” the “polyreactivity (PSR sort gate)” value was “low polyreactivity”. In the case of “QVQLVESGGGLVQAGGSLGLSCAASGFTFRNYAMGCYRQAPGKERELVATLSASSGSTYYADSVKGRFTISRDNAKNTVYLQMNSLKPEDTAVYYCAAGLSGYSRKMYYWGQGTQVTESS”, the “polyreactivity (PSR sort gate)” value is reported as “high polyreactivity”. For “QVQLVESGGGLVQAGGSLGLSCAASGIILCYYDMGWYRQAPGKERELVAAITYSGSSTYYADSVKGRFTISRDNAKNTVYLLMNSLKPEDTAVYYCNAGWFYGAIWNYDYWGQGTKVTVSS”, the “polyreactivity (PSR sort gate)” value was “low polyreactivity”. For “QVQLVESGGGLVQAGGSLGLSCAASGLTFSRYAMGWYREAPGKEWELVASISQGGGSTYYADSVKGRFTISRDNPKKTVYLQMNSLKPEDTAVYYCIRLTIGSSSYDYWGQGTKVTVSS”, the “polyreactivity (PSR sort gate)” value was “high polyreactivity”. With “QVQLVESGGGLVQAGGSLGLSCAASGRTFAKYAMGWYRQAPGKERELVAAITRGDTTNYADSVKGRFTISRDNAKNTGYLQMHRLKPEDTAVYYCAATPDPPHTYEYWGQVTQVTVSS” the “polyreactivity (PSR sort gate)” value was “low polyreactivity”. For “QVQLVESGGGLVQAGGSLGLSCAASGSIFSSNVMGWYRQAPGKERELVAAISGGGGSTYYADSVKGRFTISRDNAKNTGYLQMNSLKPEDTAVYYCNRVTTWARTPKAYGYWGQGTQVTVSS”, the “polyreactivity (PSR sort gate)” value was “high polyreactivity”. For “QVQLVESGGGLVQAGGSLGLSCAASGSIFTNYAMGWYRQAPGKERELVAAISVGGGRTYYADSVKGRFTISRDNAKNTVDLQMNSLKPEDTAVYYCAARYPFGSLGRYGYWGQGTQVTVSS”, the “polyreactivity (PSR sort gate)” value was “high polyreactivity”. For “QVQLVESGGGLVQAGGSLGLSCAASGSILYYNAMGWYRQAPGKERELVAAISWSGGSKYDADSVKGRFTISRDNAKNTVYLQMNSQKPEDTAVYYCLYYRSDEMDYWGQGTQVTVSS”, the “polyreactivity (PSR sort gate)” value was “high polyreactivity”. With “QVQLVESGGGLVQAGGSLGLSCAASGSTFLHDAMGWYRQAPGKERELVAAISVSGVRTYYADSVKGRFTISRDNGKNTVYLQMNSLKPEDTAVYYCAADGHHADYDFWGQGTQVTVSS” the “polyreactivity (PSR sort gate)” value was “low polyreactivity”. In the case of “QVQLVESGGGLVQAGGSLGVSCAASGSTFRTYAMGWYRQAPGKERELVAAISQRGGSTYYADSVKGRFTISRDNAKNTVYLQMNSLTPEDSAVYYCAARYGVRYIYRMDYWGQGSQVTVSS”, the “polyreactivity (PSR sort gate)” value is reported as “high polyreactivity”. For “QVQLVESGGGLVQAGGSLHLSCAASGSIFRKNAMGWYRQAPGKERELVAVITSSGASTYYADSVKGRFTISRDNAKNTVYLQMNSLKPEDTAVYYCNAPSFYTKKMYSWGQGTQVTVSS”, the “polyreactivity (PSR sort gate)” value was “high polyreactivity”. In the case of “QVQLVESGGGLVQAGGSLLLSCAASASTISYKAMGWYRHAPGQETELVAAIDRSVSTNYADSVKGRFTISRDNAKNTVYLQMNSLKPEDTAVYYCNARHPTDDIVIYDYWGQGTQVTVSS”, the “polyreactivity (PSR sort gate)” value is reported as “low polyreactivity”. For “QVQLVESGGGLVQAGGSLLLSCAASGFTFQYYAMGWYRPEPGKERELVASISWSGGSTYYADSVKGRFTISRDNAKNTVYLQMHSLKPEDTAVYYCAATVTYFFSSARFSAYGYWGQGTQVTVSS”, the “polyreactivity (PSR sort gate)” value was “high polyreactivity”. For “QVQLVESGGGLVQAGGSLLLSCAASGFTFSYYAMGWYRPAPGKERELVAAINWNGGSTYYADSVKGRFTISRDNAKNTVYLQMNSLKPEDTAVYYCNARQSYRYSQHGYWGQGTQLTVSS”, the “polyreactivity (PSR sort gate)” value was “high polyreactivity”. With “QVQLVESGGGLVQAGGSLLLSCAASGIIFSEYDMGWYRQAPGKESELVAAISKSGGRTYYADSVKVRFTISRDNAKNTGFLQMNSLKQEDTAVYYCAAGGRFRFTQYYKHYYWGQGTQVNVSS” the “polyreactivity (PSR sort gate)” value was “high polyreactivity”. For “QVQLVESGGGLVQAGGSLLLSCAASGITFIRNGMGWYRPAPGKERELVAAISDTGARTYYADSVKGRFTISRDNAKNTVYLQMNSLKPEDTAVYYCAADFQTYWSHLYGYIGQYDYWGQGTQVTVSS”, the “polyreactivity (PSR sort gate)” value was “low polyreactivity”. For “QVQLVESGGGLVQAGGSLLLSCAASGRIFRVYAMGWYRQAPGKERELVASITTSGSTYYADSVKGRFTISRDNAKNTVYLQMNSLKPEDTAVYYCAVDNYYTPWYPYLGYDSWGQGTQVTVSS”, the “polyreactivity (PSR sort gate)” value was “low polyreactivity”. For “QVQLVESGGGLVQAGGSLLLSCAASGRIFRYYAMGWYRQATGKERELVAGISWRGSSTYYADSVKGRFTISRDNATNTVYLQMNSLKPEDTAVYYCNRDQSYIPFTGGRFYYWGQGTQVTVSS”, the “polyreactivity (PSR sort gate)” value was “high polyreactivity”.
